Literature values in paper PMC13242166.

Target: TRH1 receptor (Homo sapiens) (UniProt P34981)
Test: radioligand binding

Chain of UniProt P34981 (P34981 whole entry): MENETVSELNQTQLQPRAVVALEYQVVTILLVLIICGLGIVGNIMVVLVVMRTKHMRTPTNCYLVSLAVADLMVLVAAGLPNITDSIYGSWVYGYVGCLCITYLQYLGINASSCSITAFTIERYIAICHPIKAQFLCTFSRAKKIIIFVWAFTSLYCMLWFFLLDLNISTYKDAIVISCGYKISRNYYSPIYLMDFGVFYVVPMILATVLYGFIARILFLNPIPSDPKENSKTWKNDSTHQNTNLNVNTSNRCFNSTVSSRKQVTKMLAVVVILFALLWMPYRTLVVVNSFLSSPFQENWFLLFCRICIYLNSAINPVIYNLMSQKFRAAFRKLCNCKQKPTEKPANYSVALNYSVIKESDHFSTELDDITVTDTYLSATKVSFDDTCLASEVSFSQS

Kd: 13 nM
Substance: TRH (from UniProt P20396)
